Experimental data: patent US20220348934A1, “NON-RIBOSOMAL PEPTIDES AND SYNTHETASES AND METHODS OF PREPARATION AND USE THEREOF” (VICTORIA LINK LIMITED, priority 2019, published 2022)

Tested on: BAP1 strain of E. coli
Experiment: Dipeptide production by Pro-CATTe A domain substitution constructs co-expressed with Phe-ATE, quantified by HPLC
Format: cell-based
Settings: BAP1 E. coli with Phe-ATE plasmid, grown 24 hours in 10 mL M9, absorbance at 214 nm; for D-Phe-L-Leu produced: upstream site X
Source text: The Phe-ATE/Pro-CAT NRPS system originally used by Belshaw et al comprises the first two modules from the NRPS pathway involved in the biosynthesis of tyrocidine in B. brevis (Belshaw et al. 1999). This two-enzyme system was used to infer stringent acceptor site specificity of the C domain within Pro-CAT that precluded incorporation of L-Leu and L-Phe substrates (Belshaw et al. 1999). An A domain substitution plasmid was made based on pET28a containing the C domain from Pro-CAT, restriction sites to insert alternative A domains, and the T-Te domains from SrfAC (SEQ ID NO: 108). […] The Pro specific A domain from Pro-CAT and five additional A domains were selected to insert into the A domain substitution construct. The five additional domains are represented by SEQ ID NOs: 109, 111, 113, 115, 117, 119, and included the Leu specific A domain from SrfAC, three additional Leu specific A domains and a Phe specific A domain.
The DNA sequences of SEQ ID NOs: 109, 111, 113, 115, 117, 119, were digested using NheI and NotI, then ligated into the compatible SpeI and NotI restriction sites of the vector pET28:ProC-TTe (SEQ ID NO: 108). The resulting Pro-CATTe constructs were transformed into a BAP1 strain of E. coli (Pfeifer et al. 2001) along with a second plasmid containing Phe-ATE (SEQ ID NO: 121). The strains were grown for 24 hours in 10 mL of M9, extracted and analysed using established protocols (Gruenewald et al. 2004). The production of dipeptides was quantified using HPLC and absorbance at 214 nm (FIG. 13), and confirmed using mass spectrometry.

Molecule | D-Phe-L-Pro DKP synthesised [mg/L] | D-Phe-L-Leu produced [mg/L]
control Pro A domain substitution strain: Pro-CATTe construct carrying the Pro specific A domain from Pro-CAT (TycB module 1), control substitution (protein) LAGHLQQIADCVANNSGVELCQIPLLTEAETSQLLAKRTETAADYPAATMHELFSRQAEKTPEQVAVVFADQHLTYRELDEKSNQLARFLRKKGIGTGSLVGTLLDRSLDMIVGILGVLKAGGAFVPIDPELPAERIAYMLTHSRVPLVVTQNHLRAKVTTPTETIDINTAVIGEESRAPIESLNQPHDLFYIIYTSGTTGQPKGVMLEHRNMANLMHFTFDQTNIAFHEKVLQYTTCSFDVCYQEIFSTLLSGGQLYLITNELRRHVEKLFAFIQEKQISILSLPVSFLKFIFNEQDYAQSFPRCVKHIITAGEQLVVTHELQKYLRQHRVFLHNHYGPSETHVVTTCTMDPGQAIPELPPIGKPISNTGIYILDEGLQLKPEGIVGELYISGANVGRGYLHQPELTAEKFLDNPYQPGERMYRTGDLALWLPDGQLEFLGRIDHQVKIRGHRIELGEIESRLLNHPAIKEAVVIDRADETGGKFLCAYVVLQKALSDEEMRAYLAQALPEYMIPSFFVTLERIPVTPNGKTDRRALPKPE | 7.8 | 
A domain from SrfAC: Pro-CATTe construct with the Leu specific A domain from SrfAC substituted (protein) LAGHLQQIADCVANNPDQPVSTINLVDDREREFLLTGLNPPAQAHETKPLTYWFKEAVNANPDAPALTYSGQTLSYRELDEEANRIARRLQKHGAGKGSVVALYTKRSLELVIGILGVLKAGAAYLPVDPKLPEDRISYMLADSAAACLLTHQEMKEQAAELPYTGTTLFIDDQTRFEEQASDPATAIDPNDPAYIMYTSGTTGKPKGNITTHANIQGLVKHVDYMAFSDQDTFLSVSNYAFDAFTFDFYASMLNAARLIIADEHTLLDTERLTDLILQENVNVMFATTALFNLLTDAGEDWMKGLRCILFGGERASVPHVRKALRIMGPGKLINCYGPTEGTVFATAHVVHDLPDSISSLPIGKPISNASVYILNEQSQLQPFGAVGELCISGMGVSKGYVNRADLTKEKFIENPFKPGETLYRTGDLARWLPDGTIEYAGRIDDQVKIRGHRIELEEIEKQLQEYPGVKDAVVVADRHESGDASINAYLVNRTQLSAEDVKAHLKKQLPAYMVPQTFTFLDELPLTTNGKVNKRLLPKPD |  | 1.81
A domain from TycC6: Pro-CATTe construct with the Leu specific A domain from the sixth module of TycC substituted (protein) LAGHLQQIADCVANNPHIRLGEIDMLLPEEKQQILAGFNDTAVSYALDKTLHQLFEEQVDKTPDQAALLFSEQSLTYSELNERANRLARVLRAKGVGPDRLVAIMAERSPEMVIGILGILKAGGAYVPVDPGYPQERIQYLLEDSNAALLLSQAHLLPLLAQVSSELPECLDLNAELDAGLSGSNLPAVNQPTDLAYVIYTSGTTGKPKGVMIPHQGIVNCLQWRRDEYGFGPSDKALQVFSFAFDGFVASLFAPLLGGATCVLPQEAAAKDPVALKKLMAATEVTHYYGVPSLFQAILDCSTTTDFNQLRCVTLGGEKLPVQLVQKTKEKHPAIEINNEYGPTENSVVTTISRSIEAGQAITIGRPLANVQVYIVDEQHHLQPIGVVGELCIGGAGLARGYLNKPELTAEKFVANPFRPGERMYKTGDLVKWRTDGTIEYIGRADEQVKVRGYRIEIGEIESAVLAYQGIDQAVVVARDDDATAGSYLCAYFVAATAVSVSGLRSHLAKELPAYMIPSYFVELDQLPLSANGKVDRKALPKPQ |  | 3.06
